According to PMC9828152:

Biological target: Sp1 (specific protein 1) (UniProt P08047)
Test: anti-Flag co-IP, Sp1 blot
Conditions: reference: Ets1 WT-Flag; sites Y283

binding against the reference: weaker
Substance: Ets1 (human E26 transcription factor 1) (from UniProt P14921) Ets1 Y283F-Flag
